B1: Pistol ribozyme (parent)
chain: GGGUCGUUGUUCCAUAAUCGCGUGGAUAUGGCACGCAAGUUUCUACCGGGCACCGUAAAUGUCCGACUGGAGCCGUUCGGGCGGCUAUAAACAGACCUCAGGCCCGAAGCGUGGCGGCACCUGCCGCCGGUGGUAAAAAAGAUCGGAAGAGCACACGUCU

Variants of: B1
Experiment: aptazyme ON/OFF ratio, guanine; higher = stronger switching; co-transcriptional cleavage with and without guanine

Variant | aptazyme ON/OFF ratio
GGGUCGAGCAGGGAUAAUCGCGUGGAUAUGGCACGCAAGUUUCUACCGGGCACCGUAAAUGUCCGACUGGAGCCGUUCGGGCGGCUAUAAACAGACCUCAGGCCCGAAGCGUGGCGGCACCUGCCGCCGGUGGUAAAAAAGAUCGGAAGAGCACACGUCU [U7A U8G G9C U10A U11G C12G C13G] | 1.72
GGGUCGAGCAGGUAUAAUCGCGUGGAUAUGGCACGCAAGUUUCUACCGGGCACCGUAAAUGUCCGACUGGAGCCGUUCGGGCGGCUAUAAACAGACCUCAGGCCCGAAGCGUGGCGGCACCUGCCGCCGGUGGUAAAAAAGAUCGGAAGAGCACACGUCU [U7A U8G G9C U10A U11G C12G C13U] | 1.25
GGGUCGAGCAGGAAUAAUCGCGUGGAUAUGGCACGCAAGUUUCUACCGGGCACCGUAAAUGUCCGACUGGAGCCGUUCGGGCGGCUAUAAACAGACCUCAGGCCCGAAGCGUGGCGGCACCUGCCGCCGGUGGUAAAAAAGAUCGGAAGAGCACACGUCU [U7A U8G G9C U10A U11G C12G C13A] | 1.14
GGGUCGAGCAGAGAUAAUCGCGUGGAUAUGGCACGCAAGUUUCUACCGGGCACCGUAAAUGUCCGACUGGAGCCGUUCGGGCGGCUAUAAACAGACCUCAGGCCCGAAGCGUGGCGGCACCUGCCGCCGGUGGUAAAAAAGAUCGGAAGAGCACACGUCU [U7A U8G G9C U10A U11G C12A C13G] | 1.18
GGGUCGAGCAGAUAUAAUCGCGUGGAUAUGGCACGCAAGUUUCUACCGGGCACCGUAAAUGUCCGACUGGAGCCGUUCGGGCGGCUAUAAACAGACCUCAGGCCCGAAGCGUGGCGGCACCUGCCGCCGGUGGUAAAAAAGAUCGGAAGAGCACACGUCU [U7A U8G G9C U10A U11G C12A C13U] | 1.16
GGGUCGAGCAGAAAUAAUCGCGUGGAUAUGGCACGCAAGUUUCUACCGGGCACCGUAAAUGUCCGACUGGAGCCGUUCGGGCGGCUAUAAACAGACCUCAGGCCCGAAGCGUGGCGGCACCUGCCGCCGGUGGUAAAAAAGAUCGGAAGAGCACACGUCU [U7A U8G G9C U10A U11G C12A C13A] | 1.2
GGGUCGAGCAGUUAUAAUCGCGUGGAUAUGGCACGCAAGUUUCUACCGGGCACCGUAAAUGUCCGACUGGAGCCGUUCGGGCGGCUAUAAACAGACCUCAGGCCCGAAGCGUGGCGGCACCUGCCGCCGGUGGUAAAAAAGAUCGGAAGAGCACACGUCU [U7A U8G G9C U10A U11G C12U C13U] | 1.35
GGGUCGAGCAGUGAUAAUCGCGUGGAUAUGGCACGCAAGUUUCUACCGGGCACCGUAAAUGUCCGACUGGAGCCGUUCGGGCGGCUAUAAACAGACCUCAGGCCCGAAGCGUGGCGGCACCUGCCGCCGGUGGUAAAAAAGAUCGGAAGAGCACACGUCU [U7A U8G G9C U10A U11G C12U C13G] | 1.26
GGGUCGAGCAGUAAUAAUCGCGUGGAUAUGGCACGCAAGUUUCUACCGGGCACCGUAAAUGUCCGACUGGAGCCGUUCGGGCGGCUAUAAACAGACCUCAGGCCCGAAGCGUGGCGGCACCUGCCGCCGGUGGUAAAAAAGAUCGGAAGAGCACACGUCU [U7A U8G G9C U10A U11G C12U C13A] | 1.21
GGGUCGAGCAGCCAUAAUCGCGUGGAUAUGGCACGCAAGUUUCUACCGGGCACCGUAAAUGUCCGACUGGAGCCGUUCGGGCGGCUAUAAACAGACCUCAGGCCCGAAGCGUGGCGGCACCUGCCGCCGGUGGUAAAAAAGAUCGGAAGAGCACACGUCU [U7A U8G G9C U10A U11G] | 1.9
GGGUCGAGCCACCAUAAUCGCGUGGAUAUGGCACGCAAGUUUCUACCGGGCACCGUAAAUGUCCGACUGGAGCCGUUCGGGCGGCUAUAAACAGACCUCAGGCCCGAAGCGUGGCGGCACCUGCCGCCGGUGGUAAAAAAGAUCGGAAGAGCACACGUCU [U7A U8G G9C U10C U11A] | 1.03
GGGUCGAGCCUCCAUAAUCGCGUGGAUAUGGCACGCAAGUUUCUACCGGGCACCGUAAAUGUCCGACUGGAGCCGUUCGGGCGGCUAUAAACAGACCUCAGGCCCGAAGCGUGGCGGCACCUGCCGCCGGUGGUAAAAAAGAUCGGAAGAGCACACGUCU [U7A U8G G9C U10C] | 2.58
GGGUCGAGCAGCUAUAAUCGCGUGGAUAUGGCACGCAAGUUUCUACCGGGCACCGUAAAUGUCCGACUGGAGCCGUUCGGGCGGCUAUAAACAGACCUCAGGCCCGAAGCGUGGCGGCACCUGCCGCCGGUGGUAAAAAAGAUCGGAAGAGCACACGUCU [U7A U8G G9C U10A U11G C13U] | 1.37
GGGUCGAGCAGCGAUAAUCGCGUGGAUAUGGCACGCAAGUUUCUACCGGGCACCGUAAAUGUCCGACUGGAGCCGUUCGGGCGGCUAUAAACAGACCUCAGGCCCGAAGCGUGGCGGCACCUGCCGCCGGUGGUAAAAAAGAUCGGAAGAGCACACGUCU [U7A U8G G9C U10A U11G C13G] | 1.26
GGGUCGAGCAGCAAUAAUCGCGUGGAUAUGGCACGCAAGUUUCUACCGGGCACCGUAAAUGUCCGACUGGAGCCGUUCGGGCGGCUAUAAACAGACCUCAGGCCCGAAGCGUGGCGGCACCUGCCGCCGGUGGUAAAAAAGAUCGGAAGAGCACACGUCU [U7A U8G G9C U10A U11G C13A] | 1.29
GGGUCGAGCCAAGAUAAUCGCGUGGAUAUGGCACGCAAGUUUCUACCGGGCACCGUAAAUGUCCGACUGGAGCCGUUCGGGCGGCUAUAAACAGACCUCAGGCCCGAAGCGUGGCGGCACCUGCCGCCGGUGGUAAAAAAGAUCGGAAGAGCACACGUCU [U7A U8G G9C U10C U11A C12A C13G] | 1.1
GGGUCGAGCCAAAAUAAUCGCGUGGAUAUGGCACGCAAGUUUCUACCGGGCACCGUAAAUGUCCGACUGGAGCCGUUCGGGCGGCUAUAAACAGACCUCAGGCCCGAAGCGUGGCGGCACCUGCCGCCGGUGGUAAAAAAGAUCGGAAGAGCACACGUCU [U7A U8G G9C U10C U11A C12A C13A] | 1.17
GGGUCGAGCCUAGAUAAUCGCGUGGAUAUGGCACGCAAGUUUCUACCGGGCACCGUAAAUGUCCGACUGGAGCCGUUCGGGCGGCUAUAAACAGACCUCAGGCCCGAAGCGUGGCGGCACCUGCCGCCGGUGGUAAAAAAGAUCGGAAGAGCACACGUCU [U7A U8G G9C U10C C12A C13G] | 1.05

Variant | aptazyme ON/OFF ratio
GGGUCGAGCCUAUAUAAUCGCGUGGAUAUGGCACGCAAGUUUCUACCGGGCACCGUAAAUGUCCGACUGGAGCCGUUCGGGCGGCUAUAAACAGACCUCAGGCCCGAAGCGUGGCGGCACCUGCCGCCGGUGGUAAAAAAGAUCGGAAGAGCACACGUCU [U7A U8G G9C U10C C12A C13U] | 1.12
GGGUCGAGCCUAAAUAAUCGCGUGGAUAUGGCACGCAAGUUUCUACCGGGCACCGUAAAUGUCCGACUGGAGCCGUUCGGGCGGCUAUAAACAGACCUCAGGCCCGAAGCGUGGCGGCACCUGCCGCCGGUGGUAAAAAAGAUCGGAAGAGCACACGUCU [U7A U8G G9C U10C C12A C13A] | 1.08
GGGUCGAGCCUACAUAAUCGCGUGGAUAUGGCACGCAAGUUUCUACCGGGCACCGUAAAUGUCCGACUGGAGCCGUUCGGGCGGCUAUAAACAGACCUCAGGCCCGAAGCGUGGCGGCACCUGCCGCCGGUGGUAAAAAAGAUCGGAAGAGCACACGUCU [U7A U8G G9C U10C C12A] | 1.15
GGGUCGAGCCUUCAUAAUCGCGUGGAUAUGGCACGCAAGUUUCUACCGGGCACCGUAAAUGUCCGACUGGAGCCGUUCGGGCGGCUAUAAACAGACCUCAGGCCCGAAGCGUGGCGGCACCUGCCGCCGGUGGUAAAAAAGAUCGGAAGAGCACACGUCU [U7A U8G G9C U10C C12U] | 1.24
GGGUCGAGCCUGCAUAAUCGCGUGGAUAUGGCACGCAAGUUUCUACCGGGCACCGUAAAUGUCCGACUGGAGCCGUUCGGGCGGCUAUAAACAGACCUCAGGCCCGAAGCGUGGCGGCACCUGCCGCCGGUGGUAAAAAAGAUCGGAAGAGCACACGUCU [U7A U8G G9C U10C C12G] | 1.4
GGGUCGAGCCAACAUAAUCGCGUGGAUAUGGCACGCAAGUUUCUACCGGGCACCGUAAAUGUCCGACUGGAGCCGUUCGGGCGGCUAUAAACAGACCUCAGGCCCGAAGCGUGGCGGCACCUGCCGCCGGUGGUAAAAAAGAUCGGAAGAGCACACGUCU [U7A U8G G9C U10C U11A C12A] | 1.21
GGGUCGAGCAGGCAUAAUCGCGUGGAUAUGGCACGCAAGUUUCUACCGGGCACCGUAAAUGUCCGACUGGAGCCGUUCGGGCGGCUAUAAACAGACCUCAGGCCCGAAGCGUGGCGGCACCUGCCGCCGGUGGUAAAAAAGAUCGGAAGAGCACACGUCU [U7A U8G G9C U10A U11G C12G] | 1.35
GGGUCGAGCAGUCAUAAUCGCGUGGAUAUGGCACGCAAGUUUCUACCGGGCACCGUAAAUGUCCGACUGGAGCCGUUCGGGCGGCUAUAAACAGACCUCAGGCCCGAAGCGUGGCGGCACCUGCCGCCGGUGGUAAAAAAGAUCGGAAGAGCACACGUCU [U7A U8G G9C U10A U11G C12U] | 1.08
GGGUCGAGCAGACAUAAUCGCGUGGAUAUGGCACGCAAGUUUCUACCGGGCACCGUAAAUGUCCGACUGGAGCCGUUCGGGCGGCUAUAAACAGACCUCAGGCCCGAAGCGUGGCGGCACCUGCCGCCGGUGGUAAAAAAGAUCGGAAGAGCACACGUCU [U7A U8G G9C U10A U11G C12A] | 1.07
GGGUCGAGCCUUUAUAAUCGCGUGGAUAUGGCACGCAAGUUUCUACCGGGCACCGUAAAUGUCCGACUGGAGCCGUUCGGGCGGCUAUAAACAGACCUCAGGCCCGAAGCGUGGCGGCACCUGCCGCCGGUGGUAAAAAAGAUCGGAAGAGCACACGUCU [U7A U8G G9C U10C C12U C13U] | 1.38
GGGUCGAGCCUUGAUAAUCGCGUGGAUAUGGCACGCAAGUUUCUACCGGGCACCGUAAAUGUCCGACUGGAGCCGUUCGGGCGGCUAUAAACAGACCUCAGGCCCGAAGCGUGGCGGCACCUGCCGCCGGUGGUAAAAAAGAUCGGAAGAGCACACGUCU [U7A U8G G9C U10C C12U C13G] | 1.17
GGGUCGAGCCUUAAUAAUCGCGUGGAUAUGGCACGCAAGUUUCUACCGGGCACCGUAAAUGUCCGACUGGAGCCGUUCGGGCGGCUAUAAACAGACCUCAGGCCCGAAGCGUGGCGGCACCUGCCGCCGGUGGUAAAAAAGAUCGGAAGAGCACACGUCU [U7A U8G G9C U10C C12U C13A] | 1.14
GGGUCGAGCCUGUAUAAUCGCGUGGAUAUGGCACGCAAGUUUCUACCGGGCACCGUAAAUGUCCGACUGGAGCCGUUCGGGCGGCUAUAAACAGACCUCAGGCCCGAAGCGUGGCGGCACCUGCCGCCGGUGGUAAAAAAGAUCGGAAGAGCACACGUCU [U7A U8G G9C U10C C12G C13U] | 1.46
GGGUCGAGCCUGAAUAAUCGCGUGGAUAUGGCACGCAAGUUUCUACCGGGCACCGUAAAUGUCCGACUGGAGCCGUUCGGGCGGCUAUAAACAGACCUCAGGCCCGAAGCGUGGCGGCACCUGCCGCCGGUGGUAAAAAAGAUCGGAAGAGCACACGUCU [U7A U8G G9C U10C C12G C13A] | 1.23
GGGUCGAGCCUGGAUAAUCGCGUGGAUAUGGCACGCAAGUUUCUACCGGGCACCGUAAAUGUCCGACUGGAGCCGUUCGGGCGGCUAUAAACAGACCUCAGGCCCGAAGCGUGGCGGCACCUGCCGCCGGUGGUAAAAAAGAUCGGAAGAGCACACGUCU [U7A U8G G9C U10C C12G C13G] | 1.2
GGGUCGAGCCUCAAUAAUCGCGUGGAUAUGGCACGCAAGUUUCUACCGGGCACCGUAAAUGUCCGACUGGAGCCGUUCGGGCGGCUAUAAACAGACCUCAGGCCCGAAGCGUGGCGGCACCUGCCGCCGGUGGUAAAAAAGAUCGGAAGAGCACACGUCU [U7A U8G G9C U10C C13A] | 1.09
GGGUCGAGCCUCUAUAAUCGCGUGGAUAUGGCACGCAAGUUUCUACCGGGCACCGUAAAUGUCCGACUGGAGCCGUUCGGGCGGCUAUAAACAGACCUCAGGCCCGAAGCGUGGCGGCACCUGCCGCCGGUGGUAAAAAAGAUCGGAAGAGCACACGUCU [U7A U8G G9C U10C C13U] | 1.28
GGGUCGAGCCUCGAUAAUCGCGUGGAUAUGGCACGCAAGUUUCUACCGGGCACCGUAAAUGUCCGACUGGAGCCGUUCGGGCGGCUAUAAACAGACCUCAGGCCCGAAGCGUGGCGGCACCUGCCGCCGGUGGUAAAAAAGAUCGGAAGAGCACACGUCU [U7A U8G G9C U10C C13G] | 1.1

Source: the RNAGym collection of RNA variant scans (doi:10.1021/acssynbio.7b00057)
